Assay results reported in the supplement of paper PMC9170038.

System: MS2 coat protein
Assay: apparent KD of MS2 coat protein; designed switch direction (-1 OFF switch, 1 ON switch): -1; higher = weaker reporter binding
Outline: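 Designed RNA switches sharing common flanks were transcribed on Illumina chips by stalled E. coli RNA polymerase. They were titrated with SNAP-549-labelled MS2 coat protein, from 0.7 or 1.5 nM doubling to 3 µM, in Tris-HCl pH 7.5 buffer with KCl, MgCl2, BSA, DTT, tRNA and Tween-20. Titrations ran without input, with 200 uM small-molecule ligand, or with an oligonucleotide input. The apparent KD of each design is the median over its clusters, after curve-fitting of normalised cluster fluorescence.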

[1] = input ligand: microRNA oligo, concentration not stated
[2] = Eterna round: R95, input ligand: FMN 200 uM
[3] = Eterna round: R95, input ligand: microRNA oligo, concentration not stated
[4] = Eterna round: R95, input ligand: none

Sequence | apparent KD of MS2 coat protein (input ligand: FMN 200 uM) [nM] | apparent KD of MS2 coat protein (input ligand: none) [nM] | apparent KD of MS2 coat protein [1] [nM] | apparent KD of MS2 coat protein [2] [nM] | apparent KD of MS2 coat protein [3] [nM] | apparent KD of MS2 coat protein [4] [nM]
GCUCUGUGAGGAUAUAUAACGCAUUGGAUAGUGAAACUUAGACAUGAGGAUCACCCAUGUAGAAGGUACGGUAG [Eternabot (L2) Solution 76] (Eterna round: R97, puzzle: Exclusion 2) | 77.8 | 99 |  |  |  | 
CAGUGACAUGAGGAUCACCCAUGUCAGGAUAUCUGUACCAUCCGACGGAGGUCCAGACAGAGAAGGGACUUGGG [Eternabot (L1) Solution 31] (Eterna round: R97, puzzle: Exclusion 1) | 76.9 | 49.9 |  |  |  | 
AGUCGAAAGACCCACAUGGACAUGAGGAUCACCCAUGUACAAGCCUUUUGCUCGUCACUAUCGUCAAAAGACGAUAG [Omei Mir Offv1 A2] (Eterna round: R97, puzzle: Sensor, turn-off variant 1) | 30.8 | 41.8 |  |  |  | 
UCAAGUAUGUAGGAUAUCGAUGUCGAAAGACAUCGAGAAGGACGUACAUGAGGAUCACCCAUGUAACUUGCAUG [Exclusion 6 - B - 10:f] (Eterna round: R96, puzzle: Exclusion 6) | 159 | 220 | 112 |  |  | 
GGAUCUAAGGUGAGGAUAUAGACUCCCAAAUGGAUCUAGAAGGCACUUGAGGAUCACCCAAGUAGUCUAGGGAA [Orered] (Eterna round: R97, puzzle: Brourd's mod of Exclusion 4) | 33.6 | 16.9 |  |  |  | 
AAGUAUAGAGGAUAUAGUAGUUACAACAUGAGGAUCACCCAUGUUCUUCAUAGCGUAGAUCUAGAAGGCUGAUAAA [EX-5 Malc#30] (puzzle: Exclusion 5) |  |  |  | 265 | 110 | 119
GUCGUGCGGCUUUGCUGUACGAGUACAUGAGGAUCACCCAUGUAGGAUAUGGUUCGCUUUGCGUGCCAGAAGGGCGUGCGUUGU [Excl-NG3-LRO13] (Eterna round: R96, puzzle: Exclusion NG 3) |  |  | 18.9 |  |  | 
UUUAGUUCAGGAUAUGUAGAUUUUAACAUGAGGAUCACCCAUGUAGAUCCUGAAUUAACUACAGAAGGGAACAUUU [Exclusion 5: 2:a] (puzzle: Exclusion 5) |  |  |  |  | 24.9 | 
UGUACUAUGCGAGCUGACUUGCGUAGUGCAGCAGGUGUAACAUGAGGAUCACCCAUGUCCUCAUUUGCUCGUCUUAU [SL-sv3-2.05 JL mod] (puzzle: Sensor v3, turn-off variant 2) |  |  |  | 347 | 297 | 414
AUAUGUAACUAGGAUAUCAGCAUACUUCAAUGUUGAGAAGGAGUUACAUGAGGAUCACCCAUGUAUCCAACAUG [Exclusion 6 - 3] (puzzle: Exclusion 6) |  |  |  |  | 44.1 | 
AAUUAGCAAGCGAGAUCCCACAUGAGGAUCACCCAUGUGCUCGUCUUAUAAAAGACUGUGACGAAAGUCACGGUCAC [Mat - Sensor, turn-off var - Eli Mod - D26] (Eterna round: R97, puzzle: Sensor, turn-off variant 1) | 14 | 15.9 |  |  |  | 
GAAAACGCUGAGGAUAUUUCUGAUCAAAGCAGCAAAGAAGGCAGCACAUGAGGAUCACCCAUGUGGUCUUCAAU [Mat - Exclusion 6 - JL Mod - D11] (Eterna round: R97, puzzle: Exclusion 6) | 445 | 33 |  |  |  | 
AAUAACAGAGGAUAUACUGUUUUAUGUGUUUGUUAUUUUAAACAUGAGGAUCACCCAUGUAGAAGGCUGAAUGA [JMF 57] (puzzle: Exclusion 2) |  |  |  |  | 22 | 
ACUCCUGAUGUUAGGAUAUCAGGCGCGACAGCGGAUGAGAAGGAACAUGAGGAUCACCCAUGUGGGCUUAUCAA [Reedonso] (Eterna round: R97, puzzle: Brourd's mod of Exclusion 4) | 325 | 81.6 |  |  |  | 
AUUGUUUGAUACCUCUAAUACAUGAGGAUCACCCAUGUUAUCGAGGAUAUGCAUUAGAGUGGAUAGCAGAAGGCGAAGUAAUUG [JR_ExcNG3_Sub029] (Eterna round: R96, puzzle: Exclusion NG 3) | 13.7 | 16.5 | 13.4 |  |  | 
GCCAACGACUGAGGAUAUGCUUAUAGACAUGAGGAUCACCCAUGUAAAUGGGACAUGUCAAACCAGCAGAAGGCAGGACCUGGC [Inteinrais] (Eterna round: R96, puzzle: Exclusion NG 2) | 100 | 70.3 | 57.5 |  |  | 
ACAUGAGGAUCACCCAUGUCGAGUACAUGAGGAUCACCCAUGUAGGAUAUGGUUCGCUUUGCGUGCUAGAAGGAUAUGUGAUGG [salish99_ExNG3_r04_513] (Eterna round: R96, puzzle: Exclusion NG 3) | 396 | 329 | 217 |  |  | 

Sequence | apparent KD of MS2 coat protein (input ligand: FMN 200 uM) [nM] | apparent KD of MS2 coat protein (input ligand: none) [nM] | apparent KD of MS2 coat protein [1] [nM] | apparent KD of MS2 coat protein [2] [nM] | apparent KD of MS2 coat protein [3] [nM] | apparent KD of MS2 coat protein [4] [nM]
AGGAAGCAAGGAUAUACGAGGAGAAGGUGUCGAUUUAAAGGACAUGAGGAUCACCCAUGUAGAAGGUGCGAGAA [JR_Exclu2_Sub048] (puzzle: Exclusion 2) |  |  |  | 110 | 83.6 | 95.8
CGGGCCGGCCUUCCGGCCGGCCCGACAUGAGGAUCACCCAUGUAGGAUAUCCCGGCUGCCGGCCGGGAGAAGGGCGUGCGUCCC [-49.5, -48.5 kcal, 14% A] (Eterna round: R96, puzzle: Exclusion NG 3) | 39.8 | 33.5 | 27.6 |  |  | 
ACCGCCGGCGUAAGGAUAUGUGAAGAAAUCCCUUUACAGAAGGUACAUGAGGAUCACCCAUGUCUUCUAGGACG [Eternabot (L1) Solution 96] (Eterna round: R97, puzzle: Brourd's mod of Exclusion 4) | 21.3 | 22.3 |  |  |  | 
CAGGAAAUAGAGGAUAUAGGAGUCGAUAGACUCCUAGAAGGCUAUACAUGAGGAUCACCCAUGUGUCCUACCUG [Fiskers Ex 6 - 69] (puzzle: Exclusion 6) |  |  |  |  | 14.6 | 
ACAUGAGGAUCACCCAUGUGACCACAAUGGCUGAUGUAGAAACAGGAUAUUCGUGAAUAUCUAACGAAGAAGGGUUAUGACUGG [Deportation 64 - Jieux - Exclusion NG 3] (Eterna round: R96, puzzle: Exclusion NG 3) | 62.9 | 72.1 | 61.7 |  |  | 
UAAGUUUAGGUAGGAUAUACUUUCAAUUUCUCUUUCCUUACAUGAGGAUCACCCAUGUUUACAUUGUAGAAGGACCACUAUGUU [JR_ExcNG2_Sub054] (Eterna round: R96, puzzle: Exclusion NG 2) |  |  | 20.5 |  |  | 
GCCCGUGGGCAAGGAUAUCCUACGCUGUUCUGGUUCGUGUCUGUCACAUGAGGAUCACCCAUGUGGGAGAAGGUGCACUAGGGU [Design 53] (Eterna round: R96, puzzle: Exclusion NG 2) | 19.7 | 16.9 | 11.1 |  |  | 
CGGGAGGGACAAGCUGUUUGCACGUCUGGUAGUGAUGCAACAUGAGGAUCACCCAUGUAUAGGGUGUGAGAGGAUGG [JR_SV3TOV2_Sub050] (Eterna round: R96, puzzle: Sensor v3, turn-off variant 2) | 1330 | 338 | 149 |  |  | 
CGAUGGCGAGGAUAUACAUGAGGAUCACCCAUGUGAGAGAUACUAGUGAGGUCGAUUAGUAGAAGGCGCUGUCG [Mat - Exclusion 3 - Eli Mod - D70] (Eterna round: R97, puzzle: Exclusion 3) | 883 | 38.6 |  |  |  | 
CUGGUGUGAGGAUAUCAAAGACCUCGGUAAAGAACCGAGGAUGAGAAGGCACAUGAGGAUCACCCAUGUAACAA [Lauscege] (puzzle: Exclusion 4) |  |  |  |  | 22.6 | 
GAGGUUUCAGGAUAUACAUGAGGAUCACCCAUGUUAUUAGUGUGGAUUGGUGUCCUGCGUAGAAGGGAGUAUAA [Eternabot (L2) Solution 93] (Eterna round: R97, puzzle: Exclusion 3) | 65.7 | 57.2 |  |  |  | 
AUGAUGUGAGGAUAUUAGUAGGGUAGCAGAUGACUGCCUAAUAAGAAGGCACAUGAGGAUCACCCAUGUUCACU [Eternabot (L2) Solution 11] (Eterna round: R97, puzzle: Exclusion 4) | 135 | 63.5 |  |  |  | 
ACGCGUGAAGGAUAUACGCGGGCCCAAGCGGAUCACACCGCACAUGAGGAUCACCCAUGUAGAAGGUCACAAAA [r4x2dt1] (Eterna round: R97, puzzle: Exclusion 2) | 169 | 23.5 |  |  |  | 
UUUAUAAUUUCAAUCUUCGCCAGCAAACUUACGCUAGCCACAUGAGGAUCACCCAUGUUUUUUGUUCGUUUUAUUCU [Veedcera] (puzzle: Sensor v3, turn-off variant 2) |  |  |  | 18 | 57.5 | 19.5
UGACGGAUAGGAUAUGUAUCGCCUGACAUGAGGAUCACCCAUGUGGUUCAUAAGUUGCCAACAGAAGGAUCAGAAA [Eternabot (L1) Solution 60] (Eterna round: R97, puzzle: Exclusion 5) | 129 | 180 |  |  |  | 
UCUGUUGAAGGAUAUGCGUAACGAGUUACGGCUCGAGGUCUACAUGAGGAUCACCCAUGUAGAAGGUCAUCAGA [EX2 #70] (Eterna round: R97, puzzle: Exclusion 2) | 15.8 | 15.1 |  |  |  | 
UUUUAGCGAGGAUAUACAUUUUUUUUAUUAUCCUCAUUAUUACAUGAGGAUCACCCAUGUAGAAGGCGCAUUUU [My Design] (puzzle: Exclusion 2) |  |  |  |  | 48.9 | 
